# B1: pUR4: 49-mer peptide derived from the bacterial F1 adhesin, His tagged, SEQ ID NO:1; class I fibronectin polymerization inhibitor (peptide)
# chain: MRGSHHHHHHGSKDQSPLAGESGETEYITEVYGNQQNPVDIDKKLPNETGFSGNMVETEDTKLN
# modifications: His tag; Bacterial adhesin derived peptide pUR4
# Legend:
# [1] = system: left carotid artery of FVB mice; assay: Carotid ligation model, quantitative immunohistochemistry; format: in vivo, mouse
# Procedure: Sections selected from the first millimeter of the carotid artery in each group were used for immunohistochemistry (IHC). Endogenous peroxidase activity was blocked with 3% H2O2, followed by incubation with Dako serum-free blocking solution (Dako; Glostrup, Denmark). The primary antibodies used were: polyclonal anti-fibronectin (Chemicon/Millipore, Billerica, Mass.), polyclonal anti-collagen type I (LF-67; a gift from Dr. Fisher, NIH, Bethesda, Md.), monoclonal anti-proliferating cell nuclear antigen (PCNA) (Sigma, St. Louis, Mo.), polyclonal anti-smooth muscle myosin heavy chain (SMMHC) (Biomedical Technologies Inc., Stoughton, Mass.), monoclonal smooth muscle-actin (SM-actin) (Dako), anti-leukocyte common antigen, CD45 (BD Pharmingen, San Jose, Calif.), monoclonal anti-intercellular adhesion molecule-1 (ICAM-1) (BD Pharmingen), and polyclonal anti-vascular cell adhesion molecule-1 (VCAM-1) (Santa Cruz Biotechnology, Santa Cruz, Calif.). Antigen retrieval for anti-fibronectin and anti-collagen type I antibodies was performed by incubating sections with proteinase K in 0.05M Tris-HCL buffer. Antigen retrieval for CD 45 antibody was performed by incubating sections with 10 mM citrate buffer (pH=6) at 120° C. Sections were then incubated with appropriate biotinylated secondary antibodies followed by avidin-biotin immunoperoxidase system (Vector Laboratories, Burlingame, Calif.). Liquid DAB Substrate Chromogen system (Dako) or Vector Red (Vector) was used for detection. PCNA, CD45, ICAM-1, and VCAM-1-immunostained sections were counterstained with hematoxylin.
# Quantitative IHC analysis was performed using Image-Pro Plus software. Data from 3-5 mice were averaged, and the average values ±s.e.m. determined. For fibronectin, collagen type I, SMMHC, and SMα-actin, color digital images were captured using a 40× objective and transformed into gray scale. Sixteen fields of view of equal size per section in the media or adventitia were randomly chosen, and the mean of the optical densities from the sixteen fields of view was determined. Three sections were analyzed per animal. For quantitative comparison of leukocyte infiltration and cell adhesion molecule expression, images were acquired using a 60× objective. The CD45, ICAM-1, and VCAM-1-positive areas were obtained using an automated programmed segmentation procedure in ImagePro. The intima plus media or adventitial regions were traced manually. The percent of the positively stained area to the total traced area was determined. For evaluation of proliferating cells, the percent of PCNA (+) cells to total cells was determined by counting cell numbers in PCNA-stained sections that had been counterstained with hematoxylin. The percent positive cells is reported as the proliferation index. To determine the SMC density, sections were stained with hematoxylin, and cells present in the media were counted. The data is expressed as number of cells/μm^2.
# Blood flow in the left carotid artery of 10-week-old FVB/NJ (FVB) mice was reduced by ligating the external and internal carotid arterial branches as described (Korshunov et al., “Flow-Induced Vascular Remodeling in the Mouse: A Model for Carotid Intima-Media Thickening,” Arterioscler. Thromb. Vasc. Biol. 23:2185-2191 (2003), which is hereby incorporated by reference in its entirety). Mice were anesthetized with an intraperitoneal injection of ketamine (80 mg/kg) and xylazine (5 mg/kg) as described in the above-cited referenced. The left common carotid artery was dissected free of the surrounding connective tissue and 50 μL of F-127 pluronic gel (BASF) containing 20 μmol/L pUR4 or III-11C was applied around the carotid artery. […]
# [2] = system: mice; assay: Dimethylnitrosamine (DMN) induced liver fibrosis; format: in vivo, mouse
# Procedure: Collagen content in the liver of mice was measured by quantitating hydroxyproline levels (FIG. 17A). Treatment groups were DMN treated mice that were post treated with pUR4 or control III-11C peptide, DMN without peptide, and saline treated control mice. Fibronectin content in the liver of mice was assessed by immunohistochemistry of liver sections using a fibronectin antibody (FIG. 17B). Inflammatory cell infiltration into the liver was assessed by quantitating the CD45 positive cells per unit area (FIG. 17C). Sequential model (FIGS. 17A, 17B); Simultaneous model (FIG. 17C). n=3 in each group.
# Liver fibrosis was induced in mice by administration of dimethylnitrosamine (DMN) for 4 weeks as previously described (Yoshida et al., “SOCS1 is a Suppressor of Liver Fibrosis and Hepatitis-Induced Carcinogenesis,” J. Exp. Med. 199:1701-1707 (2004)). This is a well established model of liver fibrosis and some of the key pathological features that develop in DMN induced fibrosis are similar to those seen in humans with liver fibrosis (Wu et al., “Animal Models of Liver Fibrosis,” Scand. J. Gastroenterol. 31:1137-1143 (1996); Jenkins et al., “A Dimethylnitrosamine-Induced Model of Cirrhosis and Portal Hypertension in the Rat,” J. Hepatol. 1:489-499 (1985), which are hereby incorporated by reference in their entirety). pUR4 was either administered for the last 10 days of DMN treatment (simultaneous treatment regimen), or for 14 days following cessation of DMN treatment (sequential treatment regimen). The latter model was performed to determine whether the peptide is effective when administered after fibrosis is established.
# Dimethylnitrosamine (DMN) will be used to induce liver injury and fibrosis in mice (10 mg/kg body weight, 3×/week for 4 weeks) as described in Example 16. The experimental groups will include: 1) DMN alone; 2) DMN+pUR4 peptide; and 3) DMN+control peptide. Non DMN-treated control animals will receive i.p. injections of 0.9% saline plus: 4) pUR4; or 5) the control peptide. Two treatment strategies will be used, as described in Example 16. In the simultaneous treatment strategy, peptides will be administered daily during the last 10 days of DMN treatment. This will allow assessment of pUR4 on preventing fibrosis development. In the sequential treatment strategy, DMN will be injected for 4 weeks. Peptides will then be administered daily for 14 days in the absence of DMN. This will allow assessment of pUR4 on preventing fibrosis progression.
# [3] = animals treated in the absence of injury for up to 2 weeks
# [4] = sequential treatment: 14 days following cessation of DMN, 20 mg/kg/d
molecule,measurement,setting,value
B1,accumulation of collagen I and fibronectin in the media and adventitia,"[1]; 7 and 14 days after surgery, vs control animals",dramatic reduction
same,SMC dedifferentiation (SM α-actin and SM myosin heavy chain staining in the media),[1]; 7 days after ligation,prevented
same,adhesion molecule expression (ICAM-1 and VCAM-1 levels in the vessel wall),[1]; 7 days after ligation,dramatic decrease
same,"decrease of leukocyte (CD45) infiltration into the intima, media, and adventitia",[1]; 7 days after surgery,80%
same,increased fibronectin deposition,[1]; 7 days after surgery,totally prevented
same,prevention of increase in cell density in the media,[1]; 7 days after surgery,75%
same,cell density in the media,"[1]; 7 days after surgery, ligated 6.7×10^−3, sham 5.0×10^−3",5.3×10^−3 cells/mm^2
same,reduction in cell proliferation (PCNA) in the adventitia,[1]; 7 days post ligation,61%
same,reduction in cell proliferation (PCNA) in the intima-media,[1]; 7 days post ligation,70%
same,fibronectin and collagen levels vs control peptide-treated animals,[1]; 14 days after surgery,still decreased
same,adverse effects,[2]; [3],do not show any adverse effects
same,decrease in the normal levels of ECM fibronectin or collagen I,[2]; [3],do not show
same,inflammation in the liver,[2]; sequential treatment model,trend towards reduced
same,collagen I content in the liver (hydroxyproline),[2]; [4],reduced
same,fibronectin content in the liver,[2]; [4],reduced
same,infiltration of immune cells (CD45) into the liver,[2]; simultaneous treatment regimen,significantly reduced

# Source: US9364516B2, “Treatment of fibrosis-related disorders using fibronectin binding proteins and polypeptides” (priority 2010, dated 2016)
